The values that follow come from paper PMC12583094 (2025).

This test deals with Myeloperoxidase (Homo sapiens, UniProt P05164). The test can be described thus: SPR. In general terms: Surface plasmon resonance follows binding to a sensor surface in real time, without labels.
Chain of Myeloperoxidase (P05164 165-273): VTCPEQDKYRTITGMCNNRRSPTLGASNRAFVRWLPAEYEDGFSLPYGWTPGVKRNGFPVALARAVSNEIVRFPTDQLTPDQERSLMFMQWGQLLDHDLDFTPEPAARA

As a reminder, the Kd is a measure of binding affinity in units of concentration. High values mean a looser complex, low ones a tighter complex. Take VPNHFNAP [VPNHFNAP peptide]: the Kd is 183 µM.
